Assay results published in publication PMC7952371.

Target: T1, mixed lineage pseudokinase ligand (human (endogenous in post-mortem brain grey matter)), Q8NB16
T1 chain: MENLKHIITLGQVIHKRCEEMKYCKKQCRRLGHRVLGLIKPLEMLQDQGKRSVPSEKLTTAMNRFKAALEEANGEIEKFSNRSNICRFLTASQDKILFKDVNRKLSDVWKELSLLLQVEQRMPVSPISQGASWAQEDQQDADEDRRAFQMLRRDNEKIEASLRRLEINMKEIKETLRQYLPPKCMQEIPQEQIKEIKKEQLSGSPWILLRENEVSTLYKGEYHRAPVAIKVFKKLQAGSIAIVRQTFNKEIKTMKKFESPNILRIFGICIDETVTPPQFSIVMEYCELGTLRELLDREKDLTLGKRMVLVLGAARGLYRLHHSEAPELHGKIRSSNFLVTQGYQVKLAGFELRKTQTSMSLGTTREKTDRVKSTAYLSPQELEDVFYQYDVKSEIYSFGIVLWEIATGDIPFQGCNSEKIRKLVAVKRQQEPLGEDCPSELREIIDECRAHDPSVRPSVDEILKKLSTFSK
Test: non-reducing gel electrophoresis and Western blot; MS grey matter extracted in native conditions (TBS, 0.1% Triton X-100); 3-8% Tris-acetate gels in non-reducing conditions; blot for MLKL
Details: remark: other sources report otherwise

B1: mixed lineage pseudokinase ligand, Q8NB16 1-471 (natural protein)
chain: T1 chain
stoichiometry N: 4
